# Data from PMC7718890.
# Tests used:
# CarD K90A;MTB RNAP (WT) = CarD K90A;MTB RNAP (WT) (Mycobacterium …, UniProt P9WJG3;P9WGZ1;P9WGY9;P9WGY7;P9WGY5 1-162;1-347;1-1178;1-1316;1-110, K90A|); assay: competition (fluorescence polarization); conditions: protein: recombinant;recombinant; tags: ;; copies: 1;2;1;1;1; blunt
# CarD R47E;MTB RNAP (WT) = CarD R47E;MTB RNAP (WT) (Mycobacterium …, UniProt P9WJG3;P9WGZ1;P9WGY9;P9WGY7;P9WGY5 1-162;1-347;1-1178;1-1316;1-110, R47E|); assay: competition (fluorescence polarization); conditions: protein: recombinant;recombinant; tags: ;; copies: 1;2;1;1;1; blunt
binder,measurement,setting,value
rrnAP3 native 61 bp (dsDNA) DNA 1: GATGACCGAACCTGGTCTTGACTCCATTGCCGGATTTGTATTAGACTGGCAGGGTTGCCCC DNA 2: GGGGCAACCCTGCCAGTCTAATACAAATCCGGCAATGGAGTCAAGACCAGGTTCGGTCATC,Ki,CarD K90A;MTB RNAP (WT),85 ± 6 nM
same,Ki,CarD R47E;MTB RNAP (WT),129 ± 14 nM
